# Source: article PMC12630831 (Nature Communications, 2025)
# Molecular target: the molecule itself
# Experiment: SDS-PAGE under DTT-free conditions with western blot
protein,measurement,value
"FLAG-tagged PRDX1 C83A expressed in HEK293 cells (natural protein, UniProt Q06830 1-199, looked up) MSSGNAKIGHPAPNFKATAVMPDGQFKDISLSDYKGKYVVFFFYPLDFTFVCPTEIIAFSDRAEEFKKLNCQVIGASVDSHFAHLAWVNTPKKQGGLGPMNIPLVSDPKRTIAQDYGVLKADEGISFRGLFIIDDKGILRQITVNDLPVGRSVDETLRLVQAFQFTDKHGEVCPAGWKPGSDTIKPDVQKSKEYFSKQK",stoichiometry N,2
"FLAG-tagged WT PRDX1 expressed in HEK293 cells (natural protein, UniProt Q06830 1-199, looked up) MSSGNAKIGHPAPNFKATAVMPDGQFKDISLSDYKGKYVVFFFYPLDFTFVCPTEIIAFSDRAEEFKKLNCQVIGASVDSHFCHLAWVNTPKKQGGLGPMNIPLVSDPKRTIAQDYGVLKADEGISFRGLFIIDDKGILRQITVNDLPVGRSVDETLRLVQAFQFTDKHGEVCPAGWKPGSDTIKPDVQKSKEYFSKQK",stoichiometry N,2
